In the supplement of paper PMC10126150:
± gives the standard deviation of the averaged measurements.

system: ATP; test: switch fluorescence ratio, 500 uM ATP over buffer (Cy3 cluster intensity, sum of 5 cycles each) (fold (ratio)); higher = stronger signal-on switching upon ATP binding; sequences stand for … in TCGTCGGCAGCGTCAGATGTGTATAAGAGACAGTTTTTTTTTTTTTTTTTTTTTTTTT…TC; conditions: aptamer strand: ATP DNA aptamer (quencher-CACCTGGGGGAGTATTGCGGAGGAAGG + anchor), 100 nM annealed; ATP concentration: 500 uM
Method in brief: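 Imaging in selection buffer was followed by imaging after 15 min with 500 uM ATP at 22 °C, for Cy3-labelled switching-strand clusters annealed to 100 nM quencher-labelled ATP aptamer on a modified Illumina MiSeq flow-cell. Five of these buffer/ATP cycles ran, separated by NaOH stripping and re-annealing. The fluorescence ratio per cluster is summed target-cycle over summed buffer-cycle Cy3 intensity, averaged per switch-domain sequence; clusters outside 100-1000 RFU were removed.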
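Also: ATP exposure 15 min at 22 °C before imaging.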

| Sequence | switch fluorescence ratio |
| --- | --- |
| GAAGCCATAT | 1.48 ± 0.068 |
| GCTGTAAAGC | 1.03 ± 0.092 |
| TGGTGGGTCG | 1.08 ± 0.069 |
| TTGCGAGAAC | 1.17 ± 0.18 |
| TTTTTATTGA | 1 ± 0.034 |
| CTTATTAGCG | 1.03 ± 0.019 |
| TTGGCATGTT | 1.005 ± 0.0093 |
| CGGCTTATGT | 0.9807 ± 0.0029 |
| TACAGGGGCC | 1 ± 0.022 |
| TTCCTTTAGG | 0.98 ± 0.06 |
| TCGGAGGAAA | 0.999 ± 0.047 |
| TTTGGTTTTT | 0.999 ± 0.031 |
| TTGGGGGCGG | 1.01 ± 0.015 |
| TTGTACAA | 0.993 ± 0.017 |
| GATGTCGTGG | 1.015 ± 0.0089 |
| GATTTCCAGG | 1.2 ± 0.024 |
| GAGGGCTTTT | 0.98 ± 0.017 |
| TCTAGGACGG | 1 ± 0.017 |
| TTTATGCGGG | 1.02 ± 0.048 |
| GACAATAAGT | 1.04 ± 0.012 |
| ATAATGATTG | 0.994 ± 0.016 |
| GGGTAGTGTA | 0.995 ± 0.012 |
| GGAATGGGGT | 0.997 ± 0.024 |
| TCGTGGGTGC | 1.01 ± 0.023 |
| CTTATCTTTT | 0.986 ± 0.0097 |
| CGGGGTTGTC | 0.966 ± 0.069 |

| Sequence | switch fluorescence ratio |
| --- | --- |
| GATATTGAGC | 1.02 ± 0.026 |
| ACTCGGGGTT | 0.998 ± 0.04 |
| TTAACGCCTC | 1.0315 ± 0.001 |
| ACTGCGTGAT | 1.05 ± 0.022 |
| ACGTTAGGGT | 1.04 ± 0.058 |
| AGGGGGGTAC | 0.991 ± 0.041 |
| ATGTGCTTC | 1.005 ± 0.0078 |
| GCGCTGGGTG | 1.11 ± 0.16 |
| TGAAGGTAAC | 0.98 ± 0.012 |
| CAGTAATTTT | 0.999 ± 0.013 |
| TCCTGGGTTG | 0.99 ± 0.066 |
| TTGCAGCTCA | 1.78 ± 1.1 |
| GTTGTGGATA | 0.97 ± 0.029 |
| TGGCCGGGTT | 1.33 ± 0.4 |
| CGATGTCGCG | 0.989 ± 0.028 |
| GTTAGGGTTG | 1.02 ± 0.045 |
| GAGAAGGATT | 0.99 ± 0.046 |
| TATGGGGTAT | 0.9863 ± 0.0055 |
| TAATATGATT | 0.999 ± 0.029 |
| ACGTGATTTG | 1.04 ± 0.025 |
| TGAATGAGAT | 0.967 ± 0.014 |
| AGCAATCGTT | 1.54 ± 0.071 |
| GGAAAATTTA | 0.963 ± 0.059 |
| AAAGGGTATA | 0.978 ± 0.064 |
| TCGTTGGGTG | 0.994 ± 0.015 |
| AACAGATCTG | 1.02 ± 0.014 |

| Sequence | switch fluorescence ratio |
| --- | --- |
| CTTACTATTC | 0.9715 ± 0.0069 |
| GAATTAGGTA | 0.962 ± 0.01 |
| GATCCATACT | 1.06 ± 0.042 |
| GGGAAACTAA | 1.01 ± 0.031 |
| AGTTTGTACG | 1.04 ± 0.024 |
| TACAGGTTGT | 1.21 ± 0.19 |
| AGTGGCACCG | 1.01 ± 0.015 |
| ACTAGGGTTT | 1.018 ± 0.0027 |
| ACTACGTTAC | 2.88 ± 0.039 |
| TAGGCTGCTG | 0.988 ± 0.021 |
| GAGTAAGACA | 0.99 ± 0.013 |
| TTCGGGATCG | 0.981 ± 0.057 |
| AAATGTCTAA | 1 ± 0.019 |
| ATCATAAGTT | 1.01 ± 0.016 |
| TAAACAGTTC | 1.05 ± 0.073 |
| ACTGAGGATA | 1 ± 0.037 |
| GAGTCCTCTT | 1.01 ± 0.032 |
| TTTTAGATCT | 1.02 ± 0.016 |
| TGGGTTGTTT | 0.986 ± 0.031 |
| ATAGTAGGTC | 1.048 ± 0.0015 |
| TTAGAGTCTG | 1.005 ± 0.01 |
| TTGGATCTTA | 0.972 ± 0.02 |
| TAACGTGAGT | 0.988 ± 0.016 |
| TAGGGGGTTT | 0.99 ± 0.032 |
| GAGGATGTTA | 1.03 ± 0.036 |
| GGGAGGTGGG | 1.009 ± 0.0014 |

| Sequence | switch fluorescence ratio |
| --- | --- |
| GTTACTGAGG | 1.031 ± 0.0017 |
| CACCTGTTGC | 1.02 ± 0.011 |
| ATACCTTCGT | 1.692 ± 0.012 |
| TTGACCTGAG | 1.08 ± 0.013 |
| AAATTTAGGA | 0.987 ± 0.021 |
| AAAAGTACGC | 1.09 ± 0.11 |
| TTATCATCCG | 1.08 ± 0.038 |
| CGGGGGCTGG | 0.989 ± 0.059 |
| GGACATTGAC | 1.08 ± 0.02 |
| TTTTCCAGCG | 1.03 ± 0.013 |
| ATTGAGAATC | 0.962 ± 0.035 |
| TGTGTTGGGA | 0.98 ± 0.016 |
| CAGGATCTTG | 0.974 ± 0.031 |
| TGGCGGTCGG | 1 ± 0.048 |
| ATACTCGTGG | 1.01 ± 0.042 |
| AAAGTCTTT | 1.02 ± 0.047 |
| CGAGCCAGAT | 1.04 ± 0.028 |
| AGGTAGGGGT | 1.01 ± 0.02 |
| TAGAGACGGA | 1.0278 ± 0.001 |
| CTACTACTGA | 1.08 ± 0.015 |
| ATTCTGGAAT | 1.02 ± 0.06 |
| CTGTCTGGGG | 0.9737 ± 0.0033 |
| GGTTTAATTA | 0.972 ± 0.03 |
| TAACACGTCG | 0.9947 ± 0.0081 |
| GTAGAAGGGA | 1.01 ± 0.025 |
| TTGATAGGGT | 1.01 ± 0.026 |

| Sequence | switch fluorescence ratio |
| --- | --- |
| GCTATAGTAT | 0.998 ± 0.0056 |
| CGGATTATTT | 0.984 ± 0.037 |
| TGCCGTTTGG | 1 ± 0.03 |
| CCGAATTCT | 1.13 ± 0.029 |
| GCGGGGAACA | 1 ± 0.017 |
| CAGGCGGAAA | 0.98 ± 0.015 |
| CAGGCGGGGA | 1.004 ± 0.0074 |
| GTAAGTAGGA | 1 ± 0.037 |
| AGGGGCGTAA | 1 ± 0.05 |
| TTTGGATCCT | 1.02 ± 0.019 |
| ATGGGTAATC | 1.03 ± 0.026 |
| CATGTGTTGC | 0.987 ± 0.012 |
| AGACTGTCGA | 1 ± 0.012 |
| GTTTTCGGTA | 0.9802 ± 8.4e-05 |
| GATAATTGTA | 0.9822 ± 0.0033 |
| GGATGGGTAA | 1.01 ± 0.039 |
| GGGGGACCGA | 1.02 ± 0.023 |
| TGGTTAAGAT | 0.999 ± 0.038 |
| AGGGCACATA | 1.0764 ± 9.5e-05 |
| AAAATTTTGT | 1 ± 0.021 |
| ACTGCTGAAT | 0.99 ± 0.045 |
| TTTAGGCATT | 1.03 ± 0.031 |
| CGTCACTAGC | 1.04 ± 0.022 |
| TTAGTCGTGC | 1.01 ± 0.026 |
| TGACCAATGT | 1 ± 0.028 |
| TGCGTATTTT | 1.025 ± 0.0031 |

| Sequence | switch fluorescence ratio |
| --- | --- |
| GGGGGAAGCT | 1.03 ± 0.05 |
| TAGGCTTTGT | 1.01 ± 0.021 |
| TTAGTGTATC | 0.982 ± 0.059 |
| TTATCGTGC | 0.9864 ± 0.0071 |
| GACAGGTGCG | 1.274 ± 0.012 |
| GATCCCGCGG | 1.049 ± 0.0088 |
| CGCTATTGTT | 1.028 ± 0.0065 |
| TATTTTGAGA | 0.997 ± 0.012 |
| ACGGGGTTTC | 1.01 ± 0.021 |
| TGAATTATAG | 1 ± 0.015 |
| CAATGGGTAC | 0.969 ± 0.024 |
| TGAAGGACCG | 0.952 ± 0.026 |
| AGGAGGAGTA | 0.968 ± 0.019 |
| AGTAACTTGA | 1 ± 0.013 |
| GTTTTTACGA | 1.03 ± 0.027 |
| GCGTGGGGGC | 1.02 ± 0.019 |
| GGTTTAGGAG | 1.01 ± 0.062 |
| AGTTATATGT | 0.985 ± 0.037 |
| CATGAAAGAC | 1.05 ± 0.041 |
| TCAGCCCCAT | 1.033 ± 0.0072 |
| GAGGGCCTCA | 1 ± 0.033 |
| TGATCGGCGG | 1.02 ± 0.05 |
| GTAGTTCATG | 0.96 ± 0.018 |
